Laboratory results reported in patent US20150259721A1.

Molecular target: Her2 (UniProt P04626)
Test: cell-based or functional assay

| Substance | EC50 nM, concentration of the drug to kill 50% of the tumor cells in vitro, HCC1954 cells [nM] | EC50 nM, concentration of the drug to kill 50% of the tumor cells in vitro, SKOV3 cells [nM] | EC50 nM, in vitro potency (cytotoxicity), SKBR3 cells [nM] | EC50 nM, in vitro potency (cytotoxicity), SKOV3 cells [nM] | EC50 nM, concentration of the drug to kill 50% of the tumor cells in vitro, PC3 cells [nM] |
| --- | --- | --- | --- | --- | --- |
| 4D5-AzAb (HC274)-AF (antibody) | 0.0212 | 0.187 | 0.0074 | 0.019 |  |
| 4D5-AzAb (HC274: LC81)-AF (antibody) | 0.0149 | 0.0523 |  |  |  |
| 4D5-AzAb (HC359)-AF (antibody) | 0.0241 | 0.16 |  |  | 1.33 |
| 4D5-AzAb (LC81)-AF (antibody) | 0.0437 | 0.201 |  |  | 1.13 |
